This note sets out measurements from publication PMC9357155 (Cancer Discovery, 2022).

Where a chain is given by its changes, count along the chain named. Names and notes keep the numbering of the source.

Data set [1] addresses T1, Full-length His-tagged MALT1 (human, UniProt Q9UDY8 1-824).
T1 sequence: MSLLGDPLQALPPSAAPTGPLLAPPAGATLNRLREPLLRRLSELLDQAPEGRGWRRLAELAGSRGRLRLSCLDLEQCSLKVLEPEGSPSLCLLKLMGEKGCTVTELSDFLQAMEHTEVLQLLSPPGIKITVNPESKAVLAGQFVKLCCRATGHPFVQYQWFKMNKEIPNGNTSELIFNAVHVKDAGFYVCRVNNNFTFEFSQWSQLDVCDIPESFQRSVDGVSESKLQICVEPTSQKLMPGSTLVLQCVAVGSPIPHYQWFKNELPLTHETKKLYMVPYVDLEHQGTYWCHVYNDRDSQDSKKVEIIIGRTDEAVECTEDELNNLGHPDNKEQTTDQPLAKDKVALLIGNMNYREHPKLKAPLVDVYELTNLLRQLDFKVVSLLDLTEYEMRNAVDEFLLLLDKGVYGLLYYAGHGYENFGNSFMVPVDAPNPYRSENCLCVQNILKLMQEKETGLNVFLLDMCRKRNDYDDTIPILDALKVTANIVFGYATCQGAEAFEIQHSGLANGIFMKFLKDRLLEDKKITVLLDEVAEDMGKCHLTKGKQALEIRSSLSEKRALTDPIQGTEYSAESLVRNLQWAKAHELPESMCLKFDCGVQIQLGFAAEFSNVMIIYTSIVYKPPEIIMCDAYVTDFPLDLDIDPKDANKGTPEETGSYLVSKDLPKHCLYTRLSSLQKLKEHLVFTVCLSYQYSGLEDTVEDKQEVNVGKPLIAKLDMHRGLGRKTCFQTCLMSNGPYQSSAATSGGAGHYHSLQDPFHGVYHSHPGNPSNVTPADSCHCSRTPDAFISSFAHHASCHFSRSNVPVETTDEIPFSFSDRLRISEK
The experiment in a line: negative-stain EM.

For data set [2], the target named is T1, Full-length His-tagged MALT1. In words: fluorescence quenching polymerisation assay.
Data set [3] deals with the molecule itself. The experiment in a line: SEC. (In general: Size exclusion chromatography separates by hydrodynamic size, large species first.)

B1: BCL10 wild type, full length, after removal of the MBP tag by 3C protease (natural protein)
chain: MEPTAPSLTEEDLTEVKKDALENLRVYLCEKIIAERHFDHLRAKKILSREDTEEISCRTSSRKRAGKLLDYLQENPKGLDTLVESIRREKTQNFLIQKITDEVLKLRNIKLEHLKGLKCSSCEPFPDGATNNLSRSNSDESNFSEKLRASTVMYHPEGESSTTPFFSTNSSLNLPVLEVGRTENTIFSSTTLPRPGDPGAPPLPPDLQLEEEGTCANSSEMFLPLRSRTVSRQ
modifications: Alexa488 (C5-maleimide) on cysteine residues in the confocal and quenching assays; not labelled for EM
Consider B1, for which the binding result in data set [1] is given as “binds”.

B2: BCL10 R58Q, full length, after removal of the MBP tag by 3C protease (natural protein)
chain: B1 chain with R58Q
modifications: Alexa488 (C5-maleimide) on cysteine residues in the confocal and quenching assays; not labelled for EM
As for B2, the binding result in data set [2] is “binds”.

B3: BCL10 E140X truncation mutant, after removal of the MBP tag by 3C protease (domain or fragment)
chain: MEPTAPSLTEEDLTEVKKDALENLRVYLCEKIIAERHFDHLRAKKILSREDTEEISCRTSSRKRAGKLLDYLQENPKGLDTLVESIRREKTQNFLIQKITDEVLKLRNIKLEHLKGLKCSSCEPFPDGATNNLSRSNSD
modifications: Alexa488 (C5-maleimide) on cysteine residues in the confocal and quenching assays; not labelled for EM
Consider B3, for which, in data set [1], the binding result is “binds”.

B4: MBP-fused BCL10 E140X (domain or fragment)
chain: B3 chain
Turning to B4, the binding result in data set [3] is reported as “binds”.
